The text below walks through data of US20250277030A1, “ANTI-NAPI2B ANTIBODIES AND METHODS OF USE” (Zymeworks BC Inc., priority 2022, published 2025).

Assay [1] addresses T1, NaPi2b expressed on IGROV-1 cells (Homo sapiens, UniProt O95436).
T1 construct: IGROV-1 cells express endogenous NaPi2b at a high level; endogenous in cells; host or cells: IGROV-1
T1 sequence (O95436 1-690): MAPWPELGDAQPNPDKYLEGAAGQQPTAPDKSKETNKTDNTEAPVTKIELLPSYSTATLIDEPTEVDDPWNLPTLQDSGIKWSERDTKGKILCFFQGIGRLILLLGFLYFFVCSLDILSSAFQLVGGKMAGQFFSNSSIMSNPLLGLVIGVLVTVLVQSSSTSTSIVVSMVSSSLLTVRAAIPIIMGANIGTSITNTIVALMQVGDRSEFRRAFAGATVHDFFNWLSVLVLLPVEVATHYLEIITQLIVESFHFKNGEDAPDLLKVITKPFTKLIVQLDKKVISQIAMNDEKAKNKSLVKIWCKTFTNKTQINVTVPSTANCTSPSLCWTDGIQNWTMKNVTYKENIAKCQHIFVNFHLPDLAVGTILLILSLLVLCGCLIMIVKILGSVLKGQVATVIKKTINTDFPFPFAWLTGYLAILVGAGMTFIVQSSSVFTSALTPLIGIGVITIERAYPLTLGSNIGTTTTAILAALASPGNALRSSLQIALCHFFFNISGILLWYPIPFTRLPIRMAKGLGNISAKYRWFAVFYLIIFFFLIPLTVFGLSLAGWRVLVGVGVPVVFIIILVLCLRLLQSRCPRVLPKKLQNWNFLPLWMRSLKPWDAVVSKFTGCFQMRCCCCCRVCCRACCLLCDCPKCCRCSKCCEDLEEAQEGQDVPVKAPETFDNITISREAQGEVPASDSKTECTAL
The assay is described as follows: Cellular binding to IGROV-1 cells by flow cytometry (Example 19). The following applies: NB = no binding (apparent Kd >150 nM). Here is the method: (§1) Briefly, cells were seeded at 50,000 cells/well in conical-bottom 96-well plates and treated with test antibody for 24 hours at 4° C. to prevent internalization. Palivizumab (anti-RSV antibody, v22277) was included as a negative control. […] Following incubation, cells were washed and stained with anti-Human IgG Fc AF647 conjugate (Jackson Immuno Research Labs, West Grove, PA; Cat. No. 109-605-098) at 4° C. for 30 min. Following incubation and washing, fluorescence was detected by flow cytometry on a BD LSRFortessa™ Cell Analyzer (BD Biosciences, Franklin Lake, NJ) with 1,000 minimum events collected per well. The AF647/APC-A GeoMean (fluorescence signal geometric mean, proportional to anti-Human AF647 binding) was calculated for the live cell population using FlowJo™ Version 10.8.1 (BD Biosciences, Franklin Lake, NJ) and plotted for each test antibody using GraphPad Prism Version 9 (GraphPad Software, San Diego, CA).
The ability of the humanized antibody variants v38591 and v29456 to bind to NaPi2b expressed on cells was assessed on endogenous NaPi2b-expressing tumor cell lines IGROV-1 (ovarian adenocarcinoma) and TOV-21G (ovarian carcinoma) by flow cytometry. IGROV-1 and TOV-21G cells express endogenous NaPi2b at high and moderate levels, respectively, as described in Example 10.
Cellular binding was performed according to methods described in Example 13.
A general note: Flow cytometry measures light scatter and fluorescence of single cells or particles in a stream.

The target of assay [2] is T2, NaPi2b expressed on HCC-78 cells (Homo sapiens, UniProt O95436).
T2 construct: endogenous in cells; host or cells: HCC-78
T2 sequence (O95436 1-690): T1 sequence (O95436 1-690)
The assay is described as follows: Cellular binding of antibody and ADCs to HCC-78 cells by flow cytometry (Example 14). Here is the method: Briefly, HEK293-6e cells were transfected for ˜24 hours to transiently express human NaPi2b, cynomolgus or mouse NaPi2b, at 1 μg of DNA per 1 million cells. Following transfection, 50,000 cells per well were seeded in V-bottom 96-well plates and incubated with 200 nM of primary antibody for 18-24 hours at 4° C. to prevent internalization. Post-incubation, cells were washed and stained with anti-Human IgG Fc AF647 conjugate (Jackson Immuno Research Labs, West Grove, PA, Cat. No. 109-605-098, Lot. No. 124868) at 4° C. for 1 hour. Following staining and washing, fluorescence was detected by flow cytometry on BD LSRFortessa™ Cell Analyzer (BD Biosciences, Franklin Lake, NJ) with 10,000 minimum events collected per well. The AF647/APC-A GeoMean (fluorescence signal geometric mean, proportional to anti-Human AF647 binding) was calculated for the live singlet cell population for each primary antibody using FlowJo™ v8 software (BD Biosciences, Franklin Lake, NJ). The Bmax and Kd of each primary antibody were calculated using GraphPad Prism Version 9 (GraphPad Software, San Diego, CA)
The ability of ADCs to bind to cells expressing NaPi2b was assessed. ADCs of a representative humanized variant antibody, v29456 (H1L2), were prepared by conjugation to DL2 and DL1 as described in Example 11. Binding to endogenous high NaPi2b-expressing cell lines IGROV-1 and HCC-78 was assessed by flow cytometry according to methods described in Example 5.

Assay [3] addresses T1, NaPi2b expressed on IGROV-1 cells. The assay is described as follows: Cellular binding of bivalent antibodies to IGROV-1 cells by flow cytometry (Example 13). The following applies: IGROV-1, 24 hours at 4° C., NB = no cellular binding. Here is the method:
IGROV-1 cells express endogenous NaPi2b at a high level.
as §1

B1: v29456: humanized anti-NaPi2b IgG1/kappa antibody H1L2; VH SEQ ID NO:24, VL SEQ ID NO:29 (antibody, V domains shown)
VH: QVQLVQSGAEVKKPGASVKVSCKASGFTFTSYNVHWVRQAPGQGLEWMGAISPGNGDLSYAQKFQGRVTMTRDTSTSTVYMELSSLRSEDTAVYYCARGRTGMGAVDYWGQGTLVTVSS
VL: DVQMTQSPSSLSASVGDRVTITCRASQDVYSYLNWYQQKPGKAVKLLIYYTSRLQSGVPSRFSGSGSGTDYTLTISSLQPEDFATYYCQQYNIFPWTFGQGTKLEIK
modifications: v29452, v29456, v29460 VH (H1); v29453, v29454, v29455, v29456 VL (L2)
Regarding B1, the “Bmax (MFI)” value is 20,096 MFI in assay [1] and 40,867 MFI in assay [3]. The “Curve Hill Slope (h)” value in assay [1] is listed as 1.1; in assay [2], 1.2; in assay [3], 1.1. Also, the Kd was determined as 1.28 nM in assay [1], 2.27 nM in assay [2] (apparent Kd) and 1.1 nM in assay [3] (apparent Kd). In assay [2], the Bmax was 21,785.
